Test results: patent US20220332804A1 (CSL INNOVATION, published 2022)
Where a chain is given by its changes, count along the chain named. Names and notes keep the numbering of the source.

Columns and labels:
[1] = molecular target: T1, cynomolgus monkey C2 (cynomolgus monkey, UniProt G8F3W0 21-752); assay: cell-based or functional assay
T1 sequence: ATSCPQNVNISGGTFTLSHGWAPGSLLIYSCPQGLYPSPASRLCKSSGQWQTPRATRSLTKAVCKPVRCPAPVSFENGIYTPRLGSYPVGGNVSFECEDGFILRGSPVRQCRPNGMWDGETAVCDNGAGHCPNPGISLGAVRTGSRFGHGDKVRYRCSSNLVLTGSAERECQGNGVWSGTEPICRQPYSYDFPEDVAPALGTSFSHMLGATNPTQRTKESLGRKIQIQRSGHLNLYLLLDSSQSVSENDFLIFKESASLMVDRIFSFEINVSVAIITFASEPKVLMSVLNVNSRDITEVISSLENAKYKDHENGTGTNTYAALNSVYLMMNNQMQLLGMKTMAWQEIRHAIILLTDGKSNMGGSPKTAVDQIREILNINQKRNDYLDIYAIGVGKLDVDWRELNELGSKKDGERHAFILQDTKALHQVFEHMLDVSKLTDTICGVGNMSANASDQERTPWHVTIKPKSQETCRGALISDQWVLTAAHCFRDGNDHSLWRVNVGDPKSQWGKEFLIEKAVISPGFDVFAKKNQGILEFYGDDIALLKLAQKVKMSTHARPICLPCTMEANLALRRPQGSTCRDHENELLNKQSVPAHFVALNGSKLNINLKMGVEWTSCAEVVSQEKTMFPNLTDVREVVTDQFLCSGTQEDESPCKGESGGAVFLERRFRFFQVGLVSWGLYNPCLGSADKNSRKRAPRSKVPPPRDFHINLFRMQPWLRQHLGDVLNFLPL

[2] = molecular target: T2, human complement C2 (human, UniProt P06681 21-752); assay: cell-based or functional assay
T2 sequence: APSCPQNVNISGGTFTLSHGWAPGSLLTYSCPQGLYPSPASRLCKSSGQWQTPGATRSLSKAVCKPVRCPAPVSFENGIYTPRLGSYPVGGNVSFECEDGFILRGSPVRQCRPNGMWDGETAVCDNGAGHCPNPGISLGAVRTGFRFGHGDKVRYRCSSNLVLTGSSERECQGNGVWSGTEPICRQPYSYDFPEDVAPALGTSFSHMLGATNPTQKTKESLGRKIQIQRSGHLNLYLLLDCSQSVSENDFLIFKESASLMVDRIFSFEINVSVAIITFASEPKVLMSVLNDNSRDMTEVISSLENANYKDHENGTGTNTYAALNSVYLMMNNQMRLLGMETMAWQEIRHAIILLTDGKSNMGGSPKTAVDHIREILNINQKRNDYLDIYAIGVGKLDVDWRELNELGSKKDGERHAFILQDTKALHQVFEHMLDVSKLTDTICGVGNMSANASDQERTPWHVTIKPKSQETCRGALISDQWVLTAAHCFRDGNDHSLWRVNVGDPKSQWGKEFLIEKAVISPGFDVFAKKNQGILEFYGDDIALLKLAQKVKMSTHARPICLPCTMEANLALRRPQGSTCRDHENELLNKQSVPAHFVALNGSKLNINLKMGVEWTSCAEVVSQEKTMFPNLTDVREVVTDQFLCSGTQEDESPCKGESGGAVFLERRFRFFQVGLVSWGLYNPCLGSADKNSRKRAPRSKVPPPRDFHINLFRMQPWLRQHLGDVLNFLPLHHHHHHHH

[3] = molecular target: T2, human complement C2; assay: SPR, mAb captured, C2 analyte, HBS-EP, pH 6.0, steady state
[4] = molecular target: T2, human complement C2; assay: SPR, mAb captured, C2 analyte, MHAs buffer, pH 7.3
Procedure: (§1) Surface plasmon resonance (SPR, Biacore) was used for all binding affinity analyses. In brief, goat anti-human IgG was directly immobilised onto the carboxymethyl dextran surface of CM5 sensorchips to approximately 12,000 RU using standard NHS/EDC chemistry at pH 5. The immobilised antibody surface was pre-conditioned with ten injections of polyclonal human IgG (Privigen 60 s) prepared at 1 μg/mL. Ligands (anti-C2 mAbs) were captured at the beginning of each cycle as described below. An adjacent spot or flow cell in which only Polyclonal IgG was capture was used as a reference surface. The goat anti-human IgG Fc antibody surface was regenerate in 100 mM H3PO4, injected for 45 seconds at the end of each cycle. Experiments were performed at 37° C. and the flow rate of each experiment was kept constant at 30 μL/min.
This buffer contains ammonium sulfate instead of sodium chloride.

[5] = molecular target: T3, mouse C2 (mouse, UniProt P21180 19-760, limits assumed); assay: SPR, mAb captured, mouse C2 analyte, pH 7.3
T3 sequence (looked up): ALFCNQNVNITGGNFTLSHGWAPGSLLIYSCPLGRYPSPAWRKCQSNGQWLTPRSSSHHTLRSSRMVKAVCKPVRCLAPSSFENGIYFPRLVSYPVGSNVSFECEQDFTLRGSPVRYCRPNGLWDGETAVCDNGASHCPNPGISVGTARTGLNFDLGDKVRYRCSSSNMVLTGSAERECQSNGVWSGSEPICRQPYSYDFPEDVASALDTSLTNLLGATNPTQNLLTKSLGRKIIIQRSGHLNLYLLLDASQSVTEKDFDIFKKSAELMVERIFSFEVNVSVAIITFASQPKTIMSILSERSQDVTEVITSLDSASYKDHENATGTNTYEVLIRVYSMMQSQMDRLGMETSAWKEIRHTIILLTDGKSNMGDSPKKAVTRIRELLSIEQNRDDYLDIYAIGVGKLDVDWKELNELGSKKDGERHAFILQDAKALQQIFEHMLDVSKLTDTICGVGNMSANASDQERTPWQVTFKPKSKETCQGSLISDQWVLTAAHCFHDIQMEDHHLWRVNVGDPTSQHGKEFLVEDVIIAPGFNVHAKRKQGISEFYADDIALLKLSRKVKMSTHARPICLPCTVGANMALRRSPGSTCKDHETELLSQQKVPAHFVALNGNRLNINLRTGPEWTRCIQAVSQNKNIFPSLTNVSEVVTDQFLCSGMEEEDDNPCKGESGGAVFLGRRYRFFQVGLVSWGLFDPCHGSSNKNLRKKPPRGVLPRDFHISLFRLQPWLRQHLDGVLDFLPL
Procedure: as §1
(§2) In addition to human C2, the pH dependent anti-C2 antibodies were also tested for their ability to bind to C2 from other mammalian species using the SPR methods described above in order to identify suitable surrogate species for in vivo testing. The antibodies were tested for binding at neutral pH against C2 from cynomolgus monkeys, mice, dogs, rabbits, rats, pigs, and sheep.

[6] = molecular target: T1, cynomolgus monkey C2; assay: SPR, mAb captured, cyno C2 analyte, pH 7.3
Procedure: as §1, §2

[7] = molecular target: T2, human complement C2; assay: SPR, mAb captured, C2 analyte, HBS-EP, pH 7.3
Procedure: as §1
The pH dependent anti-C2 antibodies and their germlined versions were tested for their affinity to C2 at pH 7.3 (neutral pH) and pH 6.0 (early endosome pH) using the SPR methods described above in HBS-EP buffer.

[8] = molecular target: T2, human complement C2; assay: cell-based or functional assay; remark: listed apart in the source
[9] = molecular target: T1, cynomolgus monkey C2; assay: cell-based or functional assay; remark: listed apart in the source
[10] = molecular target: T4, human FcRn/β2m (human, UniProt P55899 24-297; P61769 21-119); assay: SPR, antibody immobilised, FcRn/β2m analyte, pH 7.3
T4 construct: Soluble FcRn/β2m injected as analyte over immobilised antibody; also called neonatal Fc receptor
Procedure: (§3) Anti-C2 mAbs (1 μg/mL at pH 5) were immobilized on a carboxylmethyldextran (CM5) sensorchip surface using standard EDC/NHS chemistry. Human and Cyno FcRn/β2m (40 μM) were prepared in running buffer (10 mM HEPES, 150 mM NaCl, 10 mM MES adjusted to either pH 6 or pH 7.3) and injected on the immobilized anti-C2 surface at concentrations ranging from 0.078 to 40 μM, prepared in two-fold dilutions in running buffer. Association and dissociation phases were monitored for 180 and 600 seconds, respectively. […] Double referenced sensorgrams were fitted to either a 1:1 kinetic model (pH 6), including a term for mass transport limitation or to a 1:1 steady state model (pH 7.3) where responses at the end of the association phase were plotted against respective concentrations.
(§4) Binding to both human and cynomolgus monkey FcRn was tested using the SPR methods described above.

[11] = molecular target: T4, human FcRn/β2m; assay: SPR, antibody immobilised, FcRn/β2m analyte, pH 6.0
Procedure: as §3, §4

[12] = molecular target: T5, human complement C2 zymogen (human, UniProt P06681 21-752); assay: SPR, human C2 zymogen analyte, HBS-EP, pH 7.3, 37 C
T5 construct: also called huC2; human C2
T5 sequence: T2 sequence
Procedure: as §1
(§5) Purified human C2 zymogen and human C2a were tested at concentrations ranging from 1.9 to 500 nM while human C2b was tested at concentrations ranging from 1.9 to 1000 nM. All experiments were performed in HBS-EP buffer supplemented with 0.1% BSA at 37° C. and pH 7.3. Each antibody was tested against human C2 zymogen and human C2a in duplicate and against C2b in quadruplicate. The flow rate was set to 30 μL/min. Each analyte concentration was tested in duplicate.

[13] = molecular target: T6, human C2a (activated human C2) (human, UniProt P06681 244-752); assay: SPR, HBS-EP, pH 7.3, 37 C
T6 construct: the whole entry is named here; also called huC2a
T6 sequence: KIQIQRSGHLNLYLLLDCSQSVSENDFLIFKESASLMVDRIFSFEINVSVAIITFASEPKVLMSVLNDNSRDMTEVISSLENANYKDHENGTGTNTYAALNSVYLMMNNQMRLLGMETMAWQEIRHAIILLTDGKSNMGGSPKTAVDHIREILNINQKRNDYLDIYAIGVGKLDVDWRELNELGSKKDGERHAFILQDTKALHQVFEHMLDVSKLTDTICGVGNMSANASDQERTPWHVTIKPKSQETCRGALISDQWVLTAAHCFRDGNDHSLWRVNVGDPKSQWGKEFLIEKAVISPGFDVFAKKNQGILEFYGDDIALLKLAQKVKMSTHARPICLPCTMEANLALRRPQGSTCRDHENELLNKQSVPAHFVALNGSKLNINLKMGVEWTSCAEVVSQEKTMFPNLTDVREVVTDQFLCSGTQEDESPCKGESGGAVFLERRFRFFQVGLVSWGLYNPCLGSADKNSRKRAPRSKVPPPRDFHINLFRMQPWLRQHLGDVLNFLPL
Procedure: as §1, §5

[14] = molecular target: T7, human C2b (human, UniProt P06681 21-243); assay: SPR, HBS-EP, pH 7.3, 37 C
T7 construct: the whole entry is named here
T7 sequence: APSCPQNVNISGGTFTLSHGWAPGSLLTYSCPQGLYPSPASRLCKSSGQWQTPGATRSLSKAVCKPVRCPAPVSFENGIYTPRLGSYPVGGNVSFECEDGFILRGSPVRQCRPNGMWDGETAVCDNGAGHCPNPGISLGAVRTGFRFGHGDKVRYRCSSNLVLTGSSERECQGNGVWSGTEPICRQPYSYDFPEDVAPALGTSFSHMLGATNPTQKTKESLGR
Procedure: as §1, §5

T4 sequence (P55899 24-297 limits assumed, chain 1 of 2): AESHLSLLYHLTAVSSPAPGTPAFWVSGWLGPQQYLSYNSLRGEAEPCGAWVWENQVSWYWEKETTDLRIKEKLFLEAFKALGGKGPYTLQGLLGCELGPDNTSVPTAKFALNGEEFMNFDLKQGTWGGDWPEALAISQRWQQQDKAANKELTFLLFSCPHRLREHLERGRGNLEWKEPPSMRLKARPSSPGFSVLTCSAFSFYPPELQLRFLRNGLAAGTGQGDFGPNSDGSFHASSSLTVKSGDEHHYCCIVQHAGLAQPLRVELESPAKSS
T4 sequence (P61769 21-119 limits assumed, chain 2 of 2): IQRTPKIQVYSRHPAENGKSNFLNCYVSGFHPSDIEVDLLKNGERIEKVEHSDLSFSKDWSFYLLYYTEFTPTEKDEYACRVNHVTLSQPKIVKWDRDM

B1: RF16-203 (antibody, V domains shown)
VH: EVQLLESGGGLVQPGGSLRLSCAASGFTFSRYYMMWVRQAPGKGLEWVSSIGSSGGTTNYADSVKGRFTISRDNSKNTLYLQMNSLRAEDTATYYCAKGGMVLGVVNIWGQGTLVTVSS
VL: QSALTQPPSVSVSPGQTATITCSGDKLGEKYVSWYQQKPGQSPVVVIFQDIKRPSGIPERFSGSNSGNTATLTISGTQAMDEADYYCQTWGTGGIQVFGGGTKLTVLR
notes: Human antibody from a phage display library
IC50, inhibition of cynomolgus classical complement pathway (Wieslab assay) [1]: 13.3 nM | IC50, inhibition of cynomolgus lectin complement pathway (Wieslab assay) [1]: 112 nM | IC50, inhibition of human classical complement pathway (Wieslab assay) [2]: 5.4 nM | IC50, inhibition of human lectin complement pathway (Wieslab assay) [2]: 1.29 nM | Kd [3]: 73 nM | Kd [4]: 12.6 nM | Kd [5]: 153 nM | Kd [6]: 2.82 nM | Kd [7]: 2.5 nM | IC50, inhibition of human classical pathway (hemolysis assay) [8]: 42 nM | IC50, inhibition of cyno classical pathway (hemolysis assay) [9]: 361 nM

B2: RF16-226 M252Y, N286E, N434Y (antibody, human IgG4 S228P, lambda)
heavy: EVQLVQSGAEVKKPGESLKISCKGSGYSFTSYWIGWVRQMPGKGLEWMGIIYPGDSDTRYSPSFQGQVTISADKSISTAYLQWSSLKASDTAMYYCARRFSYSSGWDMWGQGTLVTVSSASTKGPSVFPLAPCSRSTSESTAALGCLVKDYFPEPVTVSWNSGALTSGVHTFPAVLQSSGLYSLSSVVTVPSSSLGTKTYTCNVDHKPSNTKVDKRVESKYGPPCPPCPAPEFLGGPSVFLFPPKPKDTLYISRTPEVTCVVVDVSQEDPEVQFNWYVDGVEVHEAKTKPREEQFNSTYRVVSVLTVLHQDWLNGKEYKCKVSNKGLPSSIEKTISKAKGQPREPQVYTLPPSQEEMTKNQVSLTCLVKGFYPSDIAVEWESNGQPENNYKTTPPVLDSDGSFFLYSRLTVDKSRWQEGNVFSCSVMHEALHYHYTQKSLSLSLGK
light: SYELTQPPSVSVSPGQTARITCSGDALTSKYVAWYQQKSGLAPLLVIYEDTRRPSGIPAKFSGSSSGSVATLTISGAHGDDEADYYCYSTDASGHQRVFGGGTKLTVLSQPKAAPSVTLFPPSSEELQANKATLVCLISDFYPGAVTVAWKADGSPVKAGVETTKPSKQSNNKYAASSYLSLTPEQWKSHRSYSCQVTHEGSTVEKTVAPTECS
Kd [10]: 3300 nM | Kd [11]: 22 nM

B3: RF16-226G YPY (RF16-226G with the M252Y, V308P and N434Y Fc mutations) (antibody, human IgG4 S228P, lambda)
heavy: B2 heavy with E285N, V307P
light: SYELTQPPSVSVSPGQTARITCSGDALTSKYVAWYQQKSGQAPVLVIYEDTRRPSGIPERFSGSSSGTMATLTISGAQVEDEADYYCYSTDASGHQRVFGGGTKLTVLGQPKAAPSVTLFPPSSEELQANKATLVCLISDFYPGAVTVAWKADSSPVKAGVETTTPSKQSNNKYAASSYLSLTPEQWKSHRSYSCQVTHEGSTVEKTVAPTECS
Kd [12]: 8 nM | binding result [13]: no binding (tested: C2a tested up to 500 nM) | binding result [14]: no binding (tested: C2b tested up to 1000 nM)

B4: RF16-226 M252Y, V308P, N434Y (antibody, human IgG4 S228P, lambda)
heavy: B2 heavy with E285N, V307P
light: B2 light
Kd [10]: 1200 nM | Kd [11]: 10 nM
